Measured values as given in paper doi:10.1101/2023.09.26.559624 (bioRxiv, 2023).
Residue numbers refer to the chain shown, from its start.

How the values were obtained:
[1] = target: T1, SASH1-SPIDER (396-564) S519N (human, UniProt O94885 396-564, S519N); experiment: NMR titration
T1 sequence (looked up): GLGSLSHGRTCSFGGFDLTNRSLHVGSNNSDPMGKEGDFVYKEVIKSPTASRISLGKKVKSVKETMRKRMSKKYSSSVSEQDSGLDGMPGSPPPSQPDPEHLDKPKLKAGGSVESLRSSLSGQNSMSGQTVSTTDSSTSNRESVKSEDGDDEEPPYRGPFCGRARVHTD

[2] = target: T2, human non-variant SASH1-SPIDER (396-564) (human, UniProt O94885 396-564); experiment: MST
T2 sequence (looked up): T1 sequence (looked up) with N124S

B1: ARC4 domain of TNKS2 with flanking residues (488-649) (domain or fragment, UniProt Q9H2K2 488-649, looked up)
chain: GNSEADRQLLEAAKAGDVETVKKLCTVQSVNCRDIEGRQSTPLHFAAGYNRVSVVEYLLQHGADVHAKDKGGLVPLHNACSYGHYEVAELLVKHGAVVNVADLWKFTPLHEAAAKGKYEICKLLLQHGADPTKKNRDGNTPLDLVKDGDTDIQDLLRGDAAL
modifications: red fluorescent dye NT-647 Maleimide (in the MST experiment only)
fold attenuation of affinity against N.V. [1]: ~10 fold | Kd [2]: 1700 ± 400 nM
